A short description of this series: label from the status in PepcDB records.
On to “MYNTVVYSIVVPLYNEELVIDENYMRLKKIMDSLKENYEIMYVNDGSKDSTMNKVEKICEKDKRIKLVNFSRNFGHQCAISAGMELSAGDAIIVIDADLQDPPEVIPQMIDKWKDGYDVVYGKRLKRKGESFLKKFTAKIFYRLLRSITNIDIPVDTGDFRLIDRKVCDTLSSLPERNRYVRGLVSWVGFKQTFVEFTRQERFAGASKYPLKKMLKLAFDGITSFSYKPLVASTYLGGLMFLLGLLAFIYVTAKNLYSHKTILTLGLILAINLCMFGLIFIILGILGQYIGRISDESKARPNYIIASTINYKENIKEVEPSEVKLN”, for which the protein production entry is “failed”.
For “MGIMELARIDLSRDDLDKRIGGGIPHGSLIIIEGEESTGKSVLCQRLAYGFLQNRYSVTYVSTQLTTLEFIKQMNSLNYSINKKLLSGALLYIPVYPLIADNKKKDGFLKKVMETRAFYEKDVIIFDSISALIANDASEVNVDDLMAFFKRITALKKIIICTVNPKELPESVLTIIRTSATMLIRTELFTFGGDLKNLAKILKYNMAPGSYQKNIVFRVEPKIGIAVEIASVALEHHHHHH” the value was “not failed”.
For “GGRAVARTLIQDVTERVRSRKKLEHYREYTDRLLDAIDDLFLVFDEEAKLTRWNDRVVEVTGYADEALGGMEALGFVPEEERERVASQIADGFMTGHAKMDIPLRRADGTTVPYEIAGNLVDRP” the value was “failed”.
The same measure for “MQPTGNQIQQNQQQQQQLIMRVPKQEVSVSGAARRYVQQAPPNRPPRQNHQNGAIGGKKSSVTIQEVPNNAYLETLNKSGNNKVDDDKLPVFLIKLWNIVEDPNLQSIVHWDDSGASFHISDPYLFGRNVLPHFFKHNNMNSMVRQLNMYGFRKMTPLSQGGLTRTESDQDHLEFSHPCFVQGRPELLSQIKRKQSARTVEDKQVNEQTQQNLEVVMAEMRAMREKAKNMEDKMNKLTKENRDMWTQMGSMRQQHARQQQYFKKLLHFLVSVMQPGLSKRVAKRGVLEIDFCAANGTAGPNSKRARMNSEEGPYKDVCDLLESLQRETQEPFSRRFTNNEGPLISEVTDEFGNSPVGRGSAQDLFGDTFGAQSSRYSDGGATSSREQSPHPIISQPQSNSAGAHGANEQKPDDMYMGSGPLTHENIHRGISALKRDYQGASPASGGPSTSSSAPSGAGAGARMAQKRAAPYKNATRQMAQPQQDYSGGFVNNYSGFMPSDPSMIPYQPSHQYLQPHQKLMAIEDQHHPTTSTSSTNADPHQNLYSPTLGLSPSFDRQLSQELQEYFTGTDTSLESFRDLVSNHNWDDFGNNVPLDDDEEGSEDPLRQLALENAPETSNYDGAEDLLFDNEQQYPENGFDVPDPNYLPLADEEIFPHSPALRTPSPSDPNLV”: “not failed”; for “MLFSASLIHRIEFAPQRELYFLALYRILEAGLIAALVFSPVSLLVDPESDPHLGTVVAVGYLLLATILLVWGRNERWFTPLVFGSTVADILAATLAIHALPKASAGIAMMLLFNVAAAAILLRLRFSMILAWIAGVAMLVEYIWTVLSEGDSSRSLAELLMFFTSYTAVAYMCHQAAQRARYSQALAEKRRAQIVNLAEINELIIRRMRTGVLVVDAANRIGLSNETAAALLGYDRQLVESDYDLATVAPELIMRLKCWRIGRHYEDTPLRLAPDQPEVQPRFVSLLADSGLTLIFLDDVSVVSRRAESLTLLALGRFSASLAHEIRNPLAAIKHASQLLEESSNLDKGDQRLLDIILKQCQRTNGIVESVLGLARRERANPENLDLVGFVSRFVDEYRQTLSSEYDNLEIQTLHSTVQALVDPRHLYQILAVLTHNALRYGRFPDTPAQVRIEVVYTGGSVGINVLDQGPGIPDAAVLQLFQPFFTTSDHGTGLGLYIARELCNANQSNLEYVAIPGGGACFRITLPGPYALIPN”: “failed”; for “MNKAVETRLNKSRPGGWIPRDGAHIERWIRRIKHYVTQQPRALVPPIAELRDLVHANPALHAQAEAMFKEAWRHKHLTPLGQPEVRSFEEFLGLLNGIMTTAPEAYQDIPSHEPSGLIGFPINALLDWPMATQSGYHFFANALINQQFKKILDYWAQFLQSPASRYVLNEPVSRLDQETLVVPWLGKVAKAEMVKVANEAVGEGPNPTPGSFEQIFECEPAAEYHGFSCWDDFFTRRFRAGVRPVSAPTDDGVIVNACESAPLQVRKEVSRSDQFWLKGQPYSLDNMLDFDDLAPRFEGGTVYQAFLSALSYHRWHSPVSGTIRKVRIVNGTYYLENQFEGFADPQGADPSAPNNSQPFLTSVATRALIFIEADNPKIGLMCVVPVGMAEVSSCEITVQAGDRVQKGDPLGMFHFGGSTHCLLFRPGVRLEFDFHGQIPGLDATNMRLNTAIARVK”: “failed”.
For the sequence “MEYSRDSAEMMMETKRNVYSLEDNKIKRHKSSDLSFSSKERKDKLAERISALQQLVSPYGKTDTASVLLEGMQYIQFLQEQVKVLSAPYLQATPSTTEEEVEEYSLRSKGLCLVPLEYTSEVAQTNGADIWAPVKTPTSSHAFNLSSSNSPFQ”, the protein production result is “failed”.
As for “SRIEERKAIIGLYNYAHEMTHGASDREYPRLGQMIVDYENPLKKMMEEFVPHSKSLSDALISLQMVYPRRNLSADQWRNAQLLSLISAPSTMLNPAQSDTMPCEYLSLDAMEKWIIFGFILCHGILNTDATALNLWKLALQSSSCLSLFRDEVFHIHKAAEDLFVNIRGYNKRINDIRECKEAAVSHAGSMHRERRKFLRSALKELATVLSDQPGLLGPKALFVFMALSFARDEIIWLLRHADNMPKKSADDFIDKHIAELIFYMEELRAHVRKYGPVMQRYYVQYLSGFDAVVLNELVQNLSVCPEDESIIMSSFVNTMTSLSVKQVEDGEVFDFRGMRLDWFRLQAYTSVSKASLGLADHRELGKMMNTIIFHTKMVDSLVEMLVETSDLSIFCFYSRAFEKMFQQCLELPSQSRYSIAFPLLCTHFMSCTHELCPEERHHIGDRSLSLCNMFLDEMAKQARNLITDICTEQCTLSDQLLPKHCAKTISQAVN”, the protein production entry was “failed”.
The same measure for “MKKEKLFSLLRYIDNGSLECITSLFLITLSLTMPAIGLGNFGIQVIALSMIPLINVRFPVAALPLALVATVWLNAWADHLLLTGFIVYLAVEYATSRGRFALALILGVEWILIAYGVALERPLEAKDSPSLITEILLILVAAGTGAGRWKILSERKQRAITQQEIIKKIRTDIAHYLHDSMARSLAIMIVQSKLTELEPDPKKIQEKLNSIAKIGQEAVADLHQLVRHLVVEESAEKATAFGAWAAVSIHDTVNSAIQLLVDAGHVVSFDSRKKNYKLDHIAETAFALAFNEAVCNAIKHSPPKANVTIRITEKAQSLQILVMNPIGDWHANGESAIPGVGIGVESLTRRIRNIKGQVCVTSLQGYWKVVISLPLKCEDS”: “failed”; for “MPEPHAVLYVTNELSHIVKNEFLPIWKLTGDESLNDLWLENGKYATDVYAYGDVSKWTIRQLRGHGFIFISTHKNVQLADIIKTVDVRVPREVARSHDMKAFENEIGRRRIRMRKGFGDALRNYAFKMAIEFHGSEAETLNDANPRLHKIYGMPEIPPLYMEYAEIGTRFDDEPTDEKLVSMLHYIVYSAEEVHYIGCGDLRTLMQFKKRSPGRFRRVLWHVYDPIAPECSDPNVIVHNIMVDSKKDILKHMNFLKRVERPFIWDVSSDRSQMNDHEWETTRFAEDRLGEEIAYEMGGAFSSALIKHRIPNSKDEYHCISTYLFPQPGADADMYELRNFMRLRGYSHVDRHMHPDASVTKVVSRDVRKMVELYHGRDCGSFLKKRLFEHLHIVRKNGLLHESDEPRADLFYLTNRCNMGLEPSIYEVMKKSVIATAWVGRAPLYDYDDFALPRSTVMLNGSYRDIRILDGNGAILFLMWRYPDIVKKDLTYDPAWAMNFAVSLKEPIPDPPVPDISLCRFIGLRVESSVLRVRNPTLHETADELKRMGLDLSGHLYVTLMSGAYVTDLFWWFKMILDWSAQNREQKLRDLKRSAAEVIEWKEQMAERPWHVRNDLIAALREYKRKMGMREGASIDSWLELLRHL”: “not failed”.
In the case of “ATPPISNLTKTASESISNLSEAGSIKKGERELKIGDRVLVGGTKAGVVRFLGETDFAKGEWCGVELDEPLGKNDGAVAGTRYFQCQPKYGLFAPVHKVTKIGFPSTTPAKAKANAVRRVMATTSASLKRSPSASSLSSMSSVASSVSSRPSRTGLLTET”, the protein production result is recorded as “not failed”.
For “MEEDVPEAEKLMCPKEVVEKNKDKQEEEEDEKGAKGGILNNLISNFMDCTTTTVEGKSSENIQKSLCEDEDEKEQESPSVGILEKIISHLPEDVAPTTDEAAILIHSAID”, the protein production entry was “failed”.
As for “MEGSLSRGVEIMKLRELVARSRSIRRFDEHVAVNDATLRDLVELVCYTPSAANRQLLRFLPVTGADMSDKVFPCLKWAGYLEDWPGPEPGERPAAALVMLCRNEDLPGAACDSGIAAQTIMLGAAEKELGGCIVAAIDRERLMASLGIPDAWTVLLVIALGKPAETVVIDQIKPGDDIRYWRDKHGIHHVPKRQVDELLVTAEQLRERG”, the protein production entry is listed as “not failed”.
